The text below walks through data of patent publication US20060024722A1.

The experiment has as its target oncofetal fibronectin (human) (UniProt P02751). Description: lateral flow sandwich assay (FDC-6 latex conjugate / immobilised goat anti-fibronectin), TLiIQ reflectance reader.
Sequence of UniProt P02751 (P02751 32-2477): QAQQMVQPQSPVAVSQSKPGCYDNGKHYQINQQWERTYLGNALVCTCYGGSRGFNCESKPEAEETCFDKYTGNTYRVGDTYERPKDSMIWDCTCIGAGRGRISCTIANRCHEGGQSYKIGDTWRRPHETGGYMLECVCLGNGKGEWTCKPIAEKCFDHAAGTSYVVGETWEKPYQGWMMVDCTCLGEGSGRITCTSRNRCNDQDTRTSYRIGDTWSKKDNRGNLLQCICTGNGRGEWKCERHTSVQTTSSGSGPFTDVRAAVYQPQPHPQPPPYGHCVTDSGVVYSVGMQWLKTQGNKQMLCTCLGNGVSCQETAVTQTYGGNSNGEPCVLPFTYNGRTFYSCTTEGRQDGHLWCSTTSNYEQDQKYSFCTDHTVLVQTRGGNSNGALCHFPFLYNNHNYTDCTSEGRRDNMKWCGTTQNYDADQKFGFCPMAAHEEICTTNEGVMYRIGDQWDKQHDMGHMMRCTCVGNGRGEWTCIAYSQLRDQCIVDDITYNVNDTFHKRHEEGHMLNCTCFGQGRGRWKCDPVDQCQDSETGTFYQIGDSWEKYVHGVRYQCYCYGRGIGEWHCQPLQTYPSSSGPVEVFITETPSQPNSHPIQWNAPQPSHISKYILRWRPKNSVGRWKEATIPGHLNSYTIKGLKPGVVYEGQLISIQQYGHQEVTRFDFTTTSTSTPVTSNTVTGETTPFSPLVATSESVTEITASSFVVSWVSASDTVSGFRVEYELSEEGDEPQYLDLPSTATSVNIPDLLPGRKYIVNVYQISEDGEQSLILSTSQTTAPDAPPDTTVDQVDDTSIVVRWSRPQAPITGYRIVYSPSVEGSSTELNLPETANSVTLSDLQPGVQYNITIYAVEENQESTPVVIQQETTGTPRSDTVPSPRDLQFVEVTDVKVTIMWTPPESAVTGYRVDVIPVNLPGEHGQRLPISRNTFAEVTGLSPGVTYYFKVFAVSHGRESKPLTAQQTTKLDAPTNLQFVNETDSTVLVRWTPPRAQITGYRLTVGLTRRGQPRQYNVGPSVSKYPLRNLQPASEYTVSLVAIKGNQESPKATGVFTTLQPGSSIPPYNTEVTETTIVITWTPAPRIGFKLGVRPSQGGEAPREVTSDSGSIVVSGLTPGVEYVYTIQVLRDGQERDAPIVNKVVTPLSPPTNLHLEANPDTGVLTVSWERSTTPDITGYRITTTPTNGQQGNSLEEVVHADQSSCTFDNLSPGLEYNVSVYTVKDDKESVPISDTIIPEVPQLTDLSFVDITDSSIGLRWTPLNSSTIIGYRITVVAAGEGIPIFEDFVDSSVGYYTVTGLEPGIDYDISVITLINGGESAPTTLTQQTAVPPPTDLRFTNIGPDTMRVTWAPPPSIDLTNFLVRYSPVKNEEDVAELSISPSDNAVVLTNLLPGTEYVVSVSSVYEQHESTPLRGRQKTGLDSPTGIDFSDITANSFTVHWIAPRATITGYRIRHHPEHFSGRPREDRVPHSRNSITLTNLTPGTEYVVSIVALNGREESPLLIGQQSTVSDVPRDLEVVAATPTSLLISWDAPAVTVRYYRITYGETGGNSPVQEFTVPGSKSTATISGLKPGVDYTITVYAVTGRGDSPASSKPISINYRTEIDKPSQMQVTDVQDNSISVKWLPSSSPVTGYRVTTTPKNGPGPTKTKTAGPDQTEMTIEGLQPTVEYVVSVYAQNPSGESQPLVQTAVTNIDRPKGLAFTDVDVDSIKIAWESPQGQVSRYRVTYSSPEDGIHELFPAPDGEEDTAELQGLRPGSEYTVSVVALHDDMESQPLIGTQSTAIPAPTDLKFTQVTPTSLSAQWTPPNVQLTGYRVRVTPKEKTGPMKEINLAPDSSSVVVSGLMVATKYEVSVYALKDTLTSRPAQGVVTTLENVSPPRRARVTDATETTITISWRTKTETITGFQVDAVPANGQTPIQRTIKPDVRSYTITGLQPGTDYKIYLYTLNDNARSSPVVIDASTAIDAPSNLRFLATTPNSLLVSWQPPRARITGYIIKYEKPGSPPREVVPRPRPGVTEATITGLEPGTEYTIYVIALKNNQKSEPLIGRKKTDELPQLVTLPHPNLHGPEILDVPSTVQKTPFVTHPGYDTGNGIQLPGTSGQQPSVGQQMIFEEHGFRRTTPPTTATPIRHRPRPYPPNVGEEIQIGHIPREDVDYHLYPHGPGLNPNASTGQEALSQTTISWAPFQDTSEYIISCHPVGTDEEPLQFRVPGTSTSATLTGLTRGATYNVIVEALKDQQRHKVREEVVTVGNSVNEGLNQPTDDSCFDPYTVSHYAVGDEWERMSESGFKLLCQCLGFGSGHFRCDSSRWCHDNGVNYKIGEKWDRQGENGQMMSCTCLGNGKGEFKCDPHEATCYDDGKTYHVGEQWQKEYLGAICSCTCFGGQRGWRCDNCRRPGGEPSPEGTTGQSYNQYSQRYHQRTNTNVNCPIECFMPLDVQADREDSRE

Take “monoclonal antibody FDC-6 produced by hybridoma ATCC HB 9018”: the reflectance signal at 50 ng/ml oncofetal fibronectin (reflectance signal) was found to be 0.315.
